Target: actin from rabbit skeletal muscle (F actin) (rabbit, UniProt P68135 1-377)
Test: co-sedimentation

B1: transgelin (natural protein)
chain: MANKGPSYGMSREVQSKIEKKYDEELEERLVEWIVVQCGPDVGRPDRGRLGFQVWLKNGVILSKLVNSLYPDGSKPVKVPENPPSMVFKQMEQVAQFLKAAEDYGVTKTDMFQTVDLFEGKDLAAVQRTLMALGSLAVTKNDGHYRGDPNWFMKKAQEHKREFTESQLQEGKHVIGLQMGSNRGASQLAGHSILPRLPHTQPCSSFSPGQASRLRH
- stoichiometry N: 6 actin monomers per transgelin
